The nanobody polyreactivity screen of Harvey et al. (2022)

Experiment: yeast display, Sf9 membrane polyspecificity reagent, FACS + sequencing; frameworks hold sequencing errors
Procedure, shortened: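 Genes from sorted yeast were amplified by colony PCR, read by MiSeq 2 × 250 sequencing and filtered on CDR length. These cells carried a synthetic nanobody library in Saccharomyces cerevisiae BJ5465 and were sorted by FACS into low and high (top ~1%) gates on anti-HA and streptavidin fluorescence. Polyreactivity is labelled according to the gate of origin.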

Sequence	polyreactivity (PSR sort gate)
QVQLVESGGGLVQAGGSLRLSCAASGLTFYVYTMGWYSQAPGKEWELVAAISSGTTTHYADSVKGRFTISRDNAMNTVYLQMNSLKPEDTAVYYCGADLYHYSRDGYWGQGTQVTVSS	low polyreactivity
QVQLVESGGGLVQEGGSLRLSCAASGIIFQRNDMGWYRQAPGKERELVANIRDGGITYADSVKGRFTISRDNAKNTVYLQMNSLKPEDTAVYYCARDDTSPGYGDQSSNAAYYYWGQGTQVTVSS	low polyreactivity
QVQLVESGGGLVQAGGSLRLSCAASGSIFYPYAMGWYRQATGKERELVAVITDTGSTYYADSVKGRFTISRDNAKNTVYLQMNSLKPEDTAVYYCYRTSYVKTPTKRYNYWGQGTQVTVSS	low polyreactivity
QVQLVESGGGLVQAGGILRLSCAASGSTFAANAMGWYRQAPGKERELVAAITSSGGSTYYADSVKGRFTISRDNAKNTVYLQMNSLKPEDTAVYYCNKDIERYVRIYYSWGQGTQVTVSS	low polyreactivity
QVQLVESGGGLVQAGGSLRLSCAASGITLTPYAMGWYRQAPGKERELVAAISWSGGSTYYADSVKGRFTISRDNAKNTVYLQMNSLKPEDTAVYYCAAGPGQYTVYAGTIGEYDYWGQGTQVTVSS	high polyreactivity
QVQLVESGGGLVQAGGSLRLSCAASGRIFYPYAMGWYRQAPGKERELVAAISRSGGSTYYADSVKGRFTISRDNAKNTVYLQMNSLKPEDTAVYYCAARRGFGPDGEMDYWGQGTQVTVSS	low polyreactivity
QVQLVESGGGLVQAGGSLRLSCAASGSTIQQYAMGWYRQAPGKEREFVAAISWRGGRTYYADSVKGRFTISRDNAKNTVSLQMNSLKPEDTAVYYCAVDPSIYRLSAYYYDYWGQGTQVTVSS	low polyreactivity
QVQLVESGGGLVQAGGSHRLSCAASGRIIWWYAMGWYRQAPGKEREFVASISSTGSTSYADSVKGRFTISRDNAKITVYFQMNILKPEDTAVYYCAKEGIRHQDYNLSNDYWGQGTHVTVSS	low polyreactivity
QVQLVESGGGLVQAGGSLRLSCAASGSIFEKYAMGWYRQAPGKERELVAAISRGTNTKYADSVKGRFTISRDNAKNTVYLQMNSLKPEDTAVYNGAARYNTYRTRIYSMDYWGQGTQVTVSS	high polyreactivity
QVQLVESGGGLVQAGGSLRLSCAASGSIFDYNAMGWYREAAGKEREFVASITYSGGSTNYADSVKGRFTISRDNAKNTVYLQMNSLKPEDTAVYYCSKTIGIVWIYYPGARYEDWGQGTQVTVSS	low polyreactivity
QVQLVESGGGLVQAGGSLRLSCAASGSTFDQNAMGWYRPAPGKERELVAAISGSGTRTYYADSVKGLFTISRDNAKKTVYLQMNSLKPEDTAVYYCRTGSGEYDYWGQGTQVTVSS	high polyreactivity
QVQLVESGGGLVQGGGSLRLSCDASGCNFRKNAMGWYRQAPGKERDLVAAISWDGDNTYADSVKGRFTISRDNAMNNVYLQLYSLKPVYTAVSYCAAETFTYYDYWGQGTQVNVSS	high polyreactivity
QVQLVESGGGLVQAGGSLRLSCAASGRIFVNNAMGWSRQAPGKERELVAAISKRGGSTYYADSVKGRFTISRDNAKNSVYLQMNSLKPEDTAVYYCAATPVYSGPYDYWGQGTQVTVSS	high polyreactivity
QVQLVESGGGLVQAGGSLRLSCAASGSTSPAYAMGWYRQAPGKERELVAVITGSGASTYYADSVKGRFTISRDNAKNTVYLQMNSMKPEDTAVYYCAADVGFGVVFYDYWGQGTQVTVSS	low polyreactivity
QVQLVESGGGLVQAGGSLRLSCAASGFIIKVYAMGWYRQAPGKERELVAAITWSGGSTYYADSVKGRFTISRDNAKNTVYLQMNSLKPEDTAVYYCAADTYYPDWITYPQGDFDYWGQGTQVTVSS	low polyreactivity
QVQLVESGGGLVQAGGSLRLSCAASGIIFKGYAMGWYRQAPGKERELVAAISQSGGSTYYADSVKGRFTISRDNAKNTVYLQMNSLKPEDTAVYYCNARYSRVVPRYYYWGQGTQVTVSS	high polyreactivity
QVQLVESGGGLVQAGGSLRLSCASSGGTFGSYAMGWYRHAPGKERELVAAIRSGDRTYYADSVKGRFTISRDNAKNTVYLQMNSLKPEDTAVYYCAAFYHHYYRYDYWGQGTQVTVSS	low polyreactivity
QVQLVESGGGLVQAGGSLRLSCAASGSTFLYVMGWYRQAPGKERELVAAISESGGSTYYADSVKGRFTISRDNAKNTLYLQMNSLKPEDTAVYYCAADLPTGLQYRYYRVDYWGQGTQVTVSS	low polyreactivity
QGQLVESGGGLVQAGGSLRLSCAASGRIVSVYAMGWYRQAPGKEREFVASISWRGGRTYYADSVKGRFTISRDNAKNTVYLQMNSLKPEDTALYYCATGYDYYVRRYYYWGQGTQVSVSS	high polyreactivity
QVQLVESGGGLVQAGGSLRLSCAASGSIFSAYAIGWYRQAPGKERELDAAITKSSVTYYADSVKGRFTISRDNAKNSVYLHMNSLKPEDTAVYYCAAASGGTVVGEVDYWGQGTQVTVSS	low polyreactivity
QVQLVESGGGLVQAGGRLRLSSAASGFIFYYYAMGWYREAPGKERELVAAISTDGGSTFYADSVKGRFTISRDNAKNTVYLQMNSLKPEDTAVYYCNAPYYGWGYWPLEYIRYEYWGQGTQVTVSS	low polyreactivity
